US20100111943A1 (MEDICAL COLLEGE OF GEORGIA RESEARCH INSTITUTE, published 2010)

Assays:
Assay in all cases: co-IP: anti-FLAG M2 immunoprecipitates immunoblotted with anti-CHIP
[1] = target: T1, FLAG (F)-tagged hsp90α K558R mutant (UniProt P07900 1-732)
T1 construct: Made by site-directed mutagenesis, expressed by transfection; also called K/R mutant at K558; acetylation-deficient mutant; not shown: FLAG tag
Experimental: (§1) Following culture in the plates for 24 hours, cells were transfected by Lipofectamine Plus following the protocol provided by Invitrogen (Carlsbad, Calif.). Transfected cells were cultured in full-medium containing drugs dissolved in DMSO or vehicle for 24 hours. Cellular extracts were prepared by directly adding lysis buffer (25 mM Tris-phosphate, pH 7.8, 2 mM DTT, 2 mM 1,2-diaminocyclohexane-N′,N′,N′,N′-tetraacetic acid, 10% glycerol, 0.2% Triton X-100) to the cells on ice. For immuno-precipitations (IP), 2×10⁶ cells in 100 mm dishes were transfected and/or treated as described above. Cellular extracts were prepared and immunoprecipitation performed as described 24. For immunoblotting, cellular extracts or immunoprecipitates were separated on SDS-PAGE, transferred to a nitrocellulose membrane, probed with antibodies, and visualized with enhanced chemiluminescence, as described (Chen, Z., et al., Mol. Pharmacol., 69:1527-33 (2006)).
(§2) The mutants were also analyzed for their ability to bind ATP, as well as for binding to co-chaperones, client proteins and the biotinylated (B) GA (geldanamycin) (Kamal, A., et al., Nature., 425:407-10 (2003)). Precipitates from the mixture of cell lysates containing hsp90α and ATP-sepharose were analyzed with anti-F antibody.

[2] = target: T2, FLAG (F)-tagged hsp90α K478R mutant (UniProt P07900 1-732)
T2 construct: Made by site-directed mutagenesis, expressed by transfection; also called K/R mutant at K478; acetylation-deficient mutant; not shown: FLAG tag
Experimental: as §1, §2

[3] = target: T3, FLAG (F)-tagged hsp90α K292Q mutant (UniProt P07900 1-732)
T3 construct: Made by site-directed mutagenesis, expressed by transfection; also called K/Q mutant at K292; acetylation-mimetic mutant; not shown: FLAG tag
Experimental: as §1, §2

[4] = target: T4, FLAG (F)-tagged hsp90α K327R mutant (UniProt P07900 1-732)
T4 construct: Made by site-directed mutagenesis, expressed by transfection; also called K/R mutant at K327; acetylation-deficient mutant; not shown: FLAG tag
Experimental: as §1, §2

[5] = target: T5, FLAG (F)-tagged hsp90α K69R mutant (UniProt P07900 1-732)
T5 construct: Made by site-directed mutagenesis, expressed by transfection; also called K/R mutant at K69; acetylation-deficient mutant; not shown: FLAG tag
Experimental: as §1, §2

[6] = target: T6, FLAG (F)-tagged hsp90α K100R mutant (UniProt P07900 1-732)
T6 construct: Made by site-directed mutagenesis, expressed by transfection; also called K/R mutant at K100; acetylation-deficient mutant; not shown: FLAG tag
Experimental: as §1, §2

[7] = target: T7, FLAG (F)-tagged hsp90α K546R mutant (UniProt P07900 1-732)
T7 construct: Made by site-directed mutagenesis, expressed by transfection; also called K/R mutant at K546; acetylation-deficient mutant; not shown: FLAG tag
Experimental: as §1, §2

[8] = target: T8, FLAG (F)-tagged hsp90α K292R mutant (UniProt P07900 1-732)
T8 construct: Made by site-directed mutagenesis, expressed by transfection; also called K/R mutant at K292; acetylation-deficient mutant; not shown: FLAG tag
Experimental: as §1, §2

[9] = target: T9, FLAG (F)-tagged hsp90α (wild type) (UniProt P07900 1-732)
T9 construct: Expressed from a plasmid described in cited literature, or translated in vitro; also called F-hsp90α; F-hsp90; not shown: FLAG tag
Experimental: as §1, §2

binding result [1]: binds | binding result [2]: binds | binding result [3]: binds | binding result [4]: binds | binding result [5]: binds | binding result [6]: binds | binding result [7]: binds | binding result [8]: binds | binding result [9]: binds
B1: CHIP (other, UniProt Q9UNE7 1-303, looked up)
chain: MKGKEEKEGGARLGAGGGSPEKSPSAQELKEQGNRLFVGRKYPEAAACYGRAITRNPLVAVYYTNRALCYLKMQQHEQALADCRRALELDGQSVKAHFFLGQCQLEMESYDEAIANLQRAYSLAKEQRLNFGDDIPSALRIAKKKRWNSIEERRIHQESELHSYLSRLIAAERERELEECQRNHEGDEDDSHVRAQQACIEAKHDKYMADMDELFSQVDEKRKKRDIPDYLCGKISFELMREPCITPSGITYDRKDIEEHLQRVGHFDPVTRSPLTQEQLIPNLAMKEVIDAFISENGWVEDY
notes: Endogenous protein co-immunoprecipitated from cell lysates and detected with anti-CHIP
